ChEMBL document CHEMBL1123179, “4-Amino-2-(substituted methyl)-2-butenoic acids: substrates and potent inhibitors of gamma-aminobutyric acid aminotransferase” (J Med Chem, 1986)

Experiments:
Conditions in all cases: Sus scrofa
NC/C=C(\CF)C(=O)O = assay: (§1) Compound was tested for the inhibitory effect against Gamma-amino-N-butyrate transaminase from pig brain, activity expressed as Km
NC/C=C(\CO)C(=O)O [1] = assay: as §1
NC/C=C(\CO)C(=O)O [2] = assay: Compound was tested for the inhibitory effect against Gamma-amino-N-butyrate transaminase from pig brain, activity expressed as Vmax

Sequence of 4-aminobutyrate aminotransferase, mitochondrial (Sus scrofa), P80147 (P80147 whole entry): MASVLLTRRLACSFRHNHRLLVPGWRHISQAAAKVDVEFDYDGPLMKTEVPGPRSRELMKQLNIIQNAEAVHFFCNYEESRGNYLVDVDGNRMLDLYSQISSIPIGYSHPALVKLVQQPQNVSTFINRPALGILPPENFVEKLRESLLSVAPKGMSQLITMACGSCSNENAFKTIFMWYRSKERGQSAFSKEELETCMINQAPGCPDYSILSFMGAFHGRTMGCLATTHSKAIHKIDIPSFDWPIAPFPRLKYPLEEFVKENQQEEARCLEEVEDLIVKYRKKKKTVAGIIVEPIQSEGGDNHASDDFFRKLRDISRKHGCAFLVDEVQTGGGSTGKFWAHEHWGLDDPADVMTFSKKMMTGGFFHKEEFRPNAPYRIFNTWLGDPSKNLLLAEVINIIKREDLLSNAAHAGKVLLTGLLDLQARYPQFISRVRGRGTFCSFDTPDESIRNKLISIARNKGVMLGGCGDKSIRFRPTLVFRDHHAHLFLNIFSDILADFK

Substance: 4-aminobutyrate aminotransferase, mitochondrial (Sus scrofa), P80147
- Km (NC/C=C(\CF)C(=O)O): 140 µM
- Km (NC/C=C(\CO)C(=O)O [1]): 10 µM
- Vmax (NC/C=C(\CO)C(=O)O [2]): 0.012 µM/min/mg
